Test results: patent publication USRE48805 (VISION GLOBAL, dated 2021)

Biological target: human serum albumin (HSA) (human, UniProt P02768 25-609)
Experiment: native polyacrylamide gel (10%) shift after 60 min incubation at room temperature at the stated HSA:AAD molar ratios

Chain of human serum albumin (HSA) (P02768 25-609 limits assumed): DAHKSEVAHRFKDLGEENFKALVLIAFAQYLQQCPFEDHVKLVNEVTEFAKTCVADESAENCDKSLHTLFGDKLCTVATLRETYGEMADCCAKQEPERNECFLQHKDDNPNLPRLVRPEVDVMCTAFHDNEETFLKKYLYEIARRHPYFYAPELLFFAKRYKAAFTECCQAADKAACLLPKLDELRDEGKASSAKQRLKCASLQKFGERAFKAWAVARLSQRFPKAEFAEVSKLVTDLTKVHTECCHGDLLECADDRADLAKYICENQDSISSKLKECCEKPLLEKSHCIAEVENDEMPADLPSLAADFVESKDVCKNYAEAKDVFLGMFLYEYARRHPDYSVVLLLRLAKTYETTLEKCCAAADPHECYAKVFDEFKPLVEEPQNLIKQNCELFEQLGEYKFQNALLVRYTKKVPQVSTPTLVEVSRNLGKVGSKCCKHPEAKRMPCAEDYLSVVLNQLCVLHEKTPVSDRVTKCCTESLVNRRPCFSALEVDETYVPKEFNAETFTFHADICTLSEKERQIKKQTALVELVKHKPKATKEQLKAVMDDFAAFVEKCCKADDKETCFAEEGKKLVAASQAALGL

B1: albumin-binding arginine deiminase (AAD) fusion protein His-ABD-PolyN-ADI (enzyme)
chain: MHHHHHHDEAVDANSLAEAKVLANRELDKYGVSDYYKNLINNAKTVEGVKALIDEILAALPSGSNNNNNNGSGGSVFDSKFKGIHVYSEIGELESVLVHEPGREIDYITPARLDELLFSAILESHDARKEHKQFVAELKANDINVVELIDLVAETYDLASQEAKDKLIEEFLEDSEPVLSEEHKVVVRNFLKAKKTSRELVEIMMAGITKYDLGIEADHELIVDPMPNLYFTRDPFASVGNGVTIHYMRYKVRQRETLFSRFVFSNHPKLINTPWYYDPSLKLSIEGGDVFIYNNDTLVVGVSERTDLQTVTLLAKNIVANKECEFKRIVAINVPKWTNLMHLDTWLTMLDKDKFLYSPIANDVFKFWDYDLVNGGAEPQPVENGLPLEGLLQSIINKKPVLIPIAGEGASQMEIERETHFDGTNYLAIRPGVVIGYSRNEKTNAALEAAGIKVLPFHGNQLSLGMGNARCMSMPLSRKDVKW
binding result: binds
